Data as given in doi:10.1101/2022.10.17.512494.

Molecular target: recombinant VE-cadherin-Fc (UniProt P55284)
Assay: atomic force microscopy

## recombinant VE-cadherin-Fc (from UniProt P55284 46-599) (Fc fusion)
  binding activity (binding probability): 61%
